Target: Aβ40DI (Homo sapiens, UniProt P05067, D694N/E693Q)
Assay: Co-immunoprecipitation of MBP with Aβ40DI
Assay type: binding
Details: purified MBP
Protocol: AP peptides were resuspended in Me2SO to 2.5 mM and used at 10.8 μM. MBP was used at 1.56 μM. Proteins were combined in 250 μl of incubation buffer (PBS, 0.05% Tween 20, and 1% BSA). Anti-MBP mAb 382 was added to each sample mixture and incubated for 1 h at 4° C. with rocking. After incubation, 20 μl of washed GammaBind protein G-Sepharose beads (Amersham Biosciences) were added to each mixture, followed by incubation for an additional 1 h at 4° C. with rocking. Beads were separated by centrifugation at 8000×g for 2 min. Supernatants were removed, and beads were washed with 1 ml of incubation buffer. Separation and washing were repeated three times. A final wash was performed in PBS and 0.05% Tween 20 to remove excess BSA. Centrifuged beads were combined with 25 μl of reducing SDS-PAGE loading buffer and heated as described above. 10 μl of each sample/loading buffer mixture was loaded onto 10-20% Tricine gels (Invitrogen) and electrophoresed at 125 V for 35 min. Immunoblotting was carried out as described above using either biotinylated anti-MBP mAb 384 or biotinylated anti-Aβ mAb 3D6 as primary antibody. Experiments were performed in triplicate.

B1: myelin basic protein (protein)
chain: ASQKRPSQRHGSKYLATASTMDHARHGFLPRHRDTGILDSIGRFFGGDRGAPKRGSGKDSHHPARTAHYGSLPQKSHGRTQDENPVVHFFKNIVTPRTPPPSQGKGRGLSLSRFSWGAEGQRPGFGYGGRASDYKSAHKGFKGVDAQGTLSKIFKLGGRDSRSGSPMARR
notes: myelin basic protein, major form about 18.5 Kd (170 residues); purified protein
preference for Aβ40DI over Aβ40WT by immunoprecipitation: showed no preference

From patent US9217013B2, “Treatment of amyloidoses using myelin basic protein and fragments thereof” (The Research Foundation for the State University of New York, priority 2008, dated 2015)
